{"source": "patent US20240321457A1", "about": "(University of California, published 2024)"}
{"biological_target": "T1, UBE2N (human, UniProt P61088 1-152)", "T1 construct": "endogenous prey from cell lysate; also called UBC13", "T1 sequence (looked up)": "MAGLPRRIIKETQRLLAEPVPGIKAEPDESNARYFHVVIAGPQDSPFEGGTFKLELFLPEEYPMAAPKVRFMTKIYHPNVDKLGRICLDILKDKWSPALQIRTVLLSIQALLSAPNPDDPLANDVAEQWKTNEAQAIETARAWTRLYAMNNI", "assay": "AP-MS, PPI score from compPASS and SAINTexpress, MDA-MB-231 cells", "description": "For AP-MS experiments, samples were resuspended in 15 μL of MS loading buffer (4% formic acid, 2% acetonitrile) and 2 μL were separated by a reversed-phase gradient over a nanoflow 75 μm ID×25 cm long picotip column packed with 1.9 μM C18 particles (Dr. Maisch). Peptides were directly injected over the course of a 75 min acquisition into a Q-Exactive Plus mass spectrometer (Thermo), or over the course of a 90 min acquisition into a Orbitrap Elite mass spectrometer. […] Peptides and proteins were filtered to 1% false discovery rate in MaxQuant, and identified proteins were then subjected to protein-protein interaction scoring.\nAll PPI scoring was performed separately for each cell line. For SAINTexpress, control samples in which bait protein was not induced by addition of doxycycline were used. For CompPASS, a stats table representing all WT baits was used. After scoring, the CompPASS WD and Z-score were normalized within a given bait for each cell line. The total list of candidate PPIs was filtered to those that met the following criteria: SAINTexpress BFDR=<0.05, WD percentile by bait>=0.95, and Z-score percentile by bait≤=0.95. PPIs passing all 3 of these criteria were considered to be high-confidence PPIs. To enable visualization and analysis of PPIs by confidence score among these 3 criteria, a PPI score was calculated: [(WD percentile by bait+Z-score percentile by bait)/2)+(1−BFDR)]/2."}
{"binder": "BRCA1 C61G (enzyme, human, UniProt P38398 1-1863, looked up, 3xFLAG-tagged bait; also called RING domain mutant C61G) MDLSALRVEEVQNVINAMQKILECPICLELIKEPVSTKCDHIFCKFCMLKLLNQKKGPSQGPLCKNDITKRSLQESTRFSQLVEELLKIICAFQLDTGLEYANSYNFAKKENNSPEHLKDEVSIIQSMGYRNRAKRLLQSEPENPSLQETSLSVQLSNLGTVRTLRTKQRIQPQKTSVYIELGSDSSEDTVNKATYCSVGDQELLQITPQGTRDEISLDSAKKAACEFSETDVTNTEHHQPSNNDLNTTEKRAAERHPEKYQGSSVSNLHVEPCGTNTHASSLQHENSSLLLTKDRMNVEKAEFCNKSKQPGLARSQHNRWAGSKETCNDRRTPSTEKKVDLNADPLCERKEWNKQKLPCSENPRDTEDVPWITLNSSIQKVNEWFSRSDELLGSDDSHDGESESNAKVADVLDVLNEVDEYSGSSEKIDLLASDPHEALICKSERVHSKSVESNIEDKIFGKTYRKKASLPNLSHVTENLIIGAFVTEPQIIQERPLTNKLKRKRRPTSGLHPEDFIKKADLAVQKTPEMINQGTNQTEQNGQVMNITNSGHENKTKGDSIQNEKNPNPIESLEKESAFKTKAEPISSSISNMELELNIHNSKAPKKNRLRRKSSTRHIHALELVVSRNLSPPNCTELQIDSCSSSEEIKKKKYNQMPVRHSRNLQLMEGKEPATGAKKSNKPNEQTSKRHDSDTFPELKLTNAPGSFTKCSNTSELKEFVNPSLPREEKEEKLETVKVSNNAEDPKDLMLSGERVLQTERSVESSSISLVPGTDYGTQESISLLEVSTLGKAKTEPNKCVSQCAAFENPKGLIHGCSKDNRNDTEGFKYPLGHEVNHSRETSIEMEESELDAQYLQNTFKVSKRQSFAPFSNPGNAEEECATFSAHSGSLKKQSPKVTFECEQKEENQGKNESNIKPVQTVNITAGFPVVGQKDKPVDNAKCSIKGGSRFCLSSQFRGNETGLITPNKHGLLQNPYRIPPLFPIKSFVKTKCKKNLLEENFEEHSMSPEREMGNENIPSTVSTISRNNIRENVFKEASSSNINEVGSSTNEVGSSINEIGSSDENIQAELGRNRGPKLNAMLRLGVLQPEVYKQSLPGSNCKHPEIKKQEYEEVVQTVNTDFSPYLISDNLEQPMGSSHASQVCSETPDDLLDDGEIKEDTSFAENDIKESSAVFSKSVQKGELSRSPSPFTHTHLAQGYRRGAKKLESSEENLSSEDEELPCFQHLLFGKVNNIPSQSTRHSTVATECLSKNTEENLLSLKNSLNDCSNQVILAKASQEHHLSEETKCSASLFSSQCSELEDLTANTNTQDPFLIGSSKQMRHQSESQGVGLSDKELVSDDEERGTGLEENNQEEQSMDSNLGEAASGCESETSVSEDCSGLSSQSDILTTQQRDTMQHNLIKLQQEMAELEAVLEQHGSQPSNSYPSIISDSSALEDLRNPEQSTSEKAVLTSQKSSEYPISQNPEGLSADKFEVSADSSTSKNKEPGVERSSPSKCPSLDDRWYMHSCSGSLQNRNYPSQEELIKVVDVEEQQLEESGPHDLTETSYLPRQDLEGTPYLESGISLFSDDPESDPSEDRAPESARVGNIPSSTSALKVPQLKVAESAQSPAAAHTTDTAGYNAMEESVSREKPELTASTERVNKRMSMVVSGLTPEEFMLVYKFARKHHITLTNLITEETTHVVMKTDAEFVCERTLKYFLGIAGGKWVVSYFWVTQSIKERKMLNEHDFEVRGDVVNGRNHQGPKRARESQDRKIFRGLEICCYGPFTNMPTDQLEWMVQLCGASVVKELSSFTLGTGVHPIVVVQPDAWTEDNGFHAIGQMCEAPVVTREWVLDSVALYQCQELDTYLIPQIPHSHY", "PPI score": "< 0.6"}
{"binder": "BRCA1 M1775R (enzyme, human, UniProt P38398 1-1863, looked up, 3xFLAG-tagged bait; also called BRCT domain mutant M1775R) MDLSALRVEEVQNVINAMQKILECPICLELIKEPVSTKCDHIFCKFCMLKLLNQKKGPSQCPLCKNDITKRSLQESTRFSQLVEELLKIICAFQLDTGLEYANSYNFAKKENNSPEHLKDEVSIIQSMGYRNRAKRLLQSEPENPSLQETSLSVQLSNLGTVRTLRTKQRIQPQKTSVYIELGSDSSEDTVNKATYCSVGDQELLQITPQGTRDEISLDSAKKAACEFSETDVTNTEHHQPSNNDLNTTEKRAAERHPEKYQGSSVSNLHVEPCGTNTHASSLQHENSSLLLTKDRMNVEKAEFCNKSKQPGLARSQHNRWAGSKETCNDRRTPSTEKKVDLNADPLCERKEWNKQKLPCSENPRDTEDVPWITLNSSIQKVNEWFSRSDELLGSDDSHDGESESNAKVADVLDVLNEVDEYSGSSEKIDLLASDPHEALICKSERVHSKSVESNIEDKIFGKTYRKKASLPNLSHVTENLIIGAFVTEPQIIQERPLTNKLKRKRRPTSGLHPEDFIKKADLAVQKTPEMINQGTNQTEQNGQVMNITNSGHENKTKGDSIQNEKNPNPIESLEKESAFKTKAEPISSSISNMELELNIHNSKAPKKNRLRRKSSTRHIHALELVVSRNLSPPNCTELQIDSCSSSEEIKKKKYNQMPVRHSRNLQLMEGKEPATGAKKSNKPNEQTSKRHDSDTFPELKLTNAPGSFTKCSNTSELKEFVNPSLPREEKEEKLETVKVSNNAEDPKDLMLSGERVLQTERSVESSSISLVPGTDYGTQESISLLEVSTLGKAKTEPNKCVSQCAAFENPKGLIHGCSKDNRNDTEGFKYPLGHEVNHSRETSIEMEESELDAQYLQNTFKVSKRQSFAPFSNPGNAEEECATFSAHSGSLKKQSPKVTFECEQKEENQGKNESNIKPVQTVNITAGFPVVGQKDKPVDNAKCSIKGGSRFCLSSQFRGNETGLITPNKHGLLQNPYRIPPLFPIKSFVKTKCKKNLLEENFEEHSMSPEREMGNENIPSTVSTISRNNIRENVFKEASSSNINEVGSSTNEVGSSINEIGSSDENIQAELGRNRGPKLNAMLRLGVLQPEVYKQSLPGSNCKHPEIKKQEYEEVVQTVNTDFSPYLISDNLEQPMGSSHASQVCSETPDDLLDDGEIKEDTSFAENDIKESSAVFSKSVQKGELSRSPSPFTHTHLAQGYRRGAKKLESSEENLSSEDEELPCFQHLLFGKVNNIPSQSTRHSTVATECLSKNTEENLLSLKNSLNDCSNQVILAKASQEHHLSEETKCSASLFSSQCSELEDLTANTNTQDPFLIGSSKQMRHQSESQGVGLSDKELVSDDEERGTGLEENNQEEQSMDSNLGEAASGCESETSVSEDCSGLSSQSDILTTQQRDTMQHNLIKLQQEMAELEAVLEQHGSQPSNSYPSIISDSSALEDLRNPEQSTSEKAVLTSQKSSEYPISQNPEGLSADKFEVSADSSTSKNKEPGVERSSPSKCPSLDDRWYMHSCSGSLQNRNYPSQEELIKVVDVEEQQLEESGPHDLTETSYLPRQDLEGTPYLESGISLFSDDPESDPSEDRAPESARVGNIPSSTSALKVPQLKVAESAQSPAAAHTTDTAGYNAMEESVSREKPELTASTERVNKRMSMVVSGLTPEEFMLVYKFARKHHITLTNLITEETTHVVMKTDAEFVCERTLKYFLGIAGGKWVVSYFWVTQSIKERKMLNEHDFEVRGDVVNGRNHQGPKRARESQDRKIFRGLEICCYGPFTNRPTDQLEWMVQLCGASVVKELSSFTLGTGVHPIVVVQPDAWTEDNGFHAIGQMCEAPVVTREWVLDSVALYQCQELDTYLIPQIPHSHY", "PPI score": "< 0.6"}
{"binder": "BRCA1 R71G (enzyme, human, UniProt P38398 1-1863, looked up, 3xFLAG-tagged bait; also called RING domain mutant R71G) MDLSALRVEEVQNVINAMQKILECPICLELIKEPVSTKCDHIFCKFCMLKLLNQKKGPSQCPLCKNDITKGSLQESTRFSQLVEELLKIICAFQLDTGLEYANSYNFAKKENNSPEHLKDEVSIIQSMGYRNRAKRLLQSEPENPSLQETSLSVQLSNLGTVRTLRTKQRIQPQKTSVYIELGSDSSEDTVNKATYCSVGDQELLQITPQGTRDEISLDSAKKAACEFSETDVTNTEHHQPSNNDLNTTEKRAAERHPEKYQGSSVSNLHVEPCGTNTHASSLQHENSSLLLTKDRMNVEKAEFCNKSKQPGLARSQHNRWAGSKETCNDRRTPSTEKKVDLNADPLCERKEWNKQKLPCSENPRDTEDVPWITLNSSIQKVNEWFSRSDELLGSDDSHDGESESNAKVADVLDVLNEVDEYSGSSEKIDLLASDPHEALICKSERVHSKSVESNIEDKIFGKTYRKKASLPNLSHVTENLIIGAFVTEPQIIQERPLTNKLKRKRRPTSGLHPEDFIKKADLAVQKTPEMINQGTNQTEQNGQVMNITNSGHENKTKGDSIQNEKNPNPIESLEKESAFKTKAEPISSSISNMELELNIHNSKAPKKNRLRRKSSTRHIHALELVVSRNLSPPNCTELQIDSCSSSEEIKKKKYNQMPVRHSRNLQLMEGKEPATGAKKSNKPNEQTSKRHDSDTFPELKLTNAPGSFTKCSNTSELKEFVNPSLPREEKEEKLETVKVSNNAEDPKDLMLSGERVLQTERSVESSSISLVPGTDYGTQESISLLEVSTLGKAKTEPNKCVSQCAAFENPKGLIHGCSKDNRNDTEGFKYPLGHEVNHSRETSIEMEESELDAQYLQNTFKVSKRQSFAPFSNPGNAEEECATFSAHSGSLKKQSPKVTFECEQKEENQGKNESNIKPVQTVNITAGFPVVGQKDKPVDNAKCSIKGGSRFCLSSQFRGNETGLITPNKHGLLQNPYRIPPLFPIKSFVKTKCKKNLLEENFEEHSMSPEREMGNENIPSTVSTISRNNIRENVFKEASSSNINEVGSSTNEVGSSINEIGSSDENIQAELGRNRGPKLNAMLRLGVLQPEVYKQSLPGSNCKHPEIKKQEYEEVVQTVNTDFSPYLISDNLEQPMGSSHASQVCSETPDDLLDDGEIKEDTSFAENDIKESSAVFSKSVQKGELSRSPSPFTHTHLAQGYRRGAKKLESSEENLSSEDEELPCFQHLLFGKVNNIPSQSTRHSTVATECLSKNTEENLLSLKNSLNDCSNQVILAKASQEHHLSEETKCSASLFSSQCSELEDLTANTNTQDPFLIGSSKQMRHQSESQGVGLSDKELVSDDEERGTGLEENNQEEQSMDSNLGEAASGCESETSVSEDCSGLSSQSDILTTQQRDTMQHNLIKLQQEMAELEAVLEQHGSQPSNSYPSIISDSSALEDLRNPEQSTSEKAVLTSQKSSEYPISQNPEGLSADKFEVSADSSTSKNKEPGVERSSPSKCPSLDDRWYMHSCSGSLQNRNYPSQEELIKVVDVEEQQLEESGPHDLTETSYLPRQDLEGTPYLESGISLFSDDPESDPSEDRAPESARVGNIPSSTSALKVPQLKVAESAQSPAAAHTTDTAGYNAMEESVSREKPELTASTERVNKRMSMVVSGLTPEEFMLVYKFARKHHITLTNLITEETTHVVMKTDAEFVCERTLKYFLGIAGGKWVVSYFWVTQSIKERKMLNEHDFEVRGDVVNGRNHQGPKRARESQDRKIFRGLEICCYGPFTNMPTDQLEWMVQLCGASVVKELSSFTLGTGVHPIVVVQPDAWTEDNGFHAIGQMCEAPVVTREWVLDSVALYQCQELDTYLIPQIPHSHY", "PPI score": "< 0.6"}
